The values that follow come from publication PMC6449940, “The Cdc42 effectors Gic1 and Gic2 regulate polarized post-Golgi secretion” (Cell & Bioscience, 2019).

The target in assay [1] is T1, His6-Cdc42 (S. cerevisiae, UniProt P19073 1-191).
T1 construct: Cdc42, small GTPase, S. cerevisiae; also called Hisx6-Cdc42; Cdc42 wild type; source: bacteria, purified (Hisx6 fusion)
The assay is described as follows: pull-down; GST-Gic2N (a.a.1–155) on glutathione Sepharose (20 μg), His6-Cdc42 or mutant (10 μg) in the presence of GTPγS; bound protein detected with anti-Hisx6 antibody. The settings on record: both partners purified.

The target in assay [2] is T2, His6-cdc42-302 (V36A F37A) (S. cerevisiae, UniProt P19073 1-191, V36A | F37A).
T2 construct: Cdc42, S. cerevisiae, with V36A and F37A; source: bacteria, purified (Hisx6 fusion)
T2 sequence (P19073 whole entry V36A/F37A, the tested form may be a part): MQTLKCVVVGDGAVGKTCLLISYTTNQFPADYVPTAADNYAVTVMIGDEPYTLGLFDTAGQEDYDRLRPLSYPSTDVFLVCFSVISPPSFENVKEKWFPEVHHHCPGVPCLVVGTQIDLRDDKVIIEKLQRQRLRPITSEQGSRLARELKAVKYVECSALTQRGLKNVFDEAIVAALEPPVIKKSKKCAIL
The description is as above. To be noted: both partners purified.

T1 sequence (P19073 whole entry, the tested form may be a part): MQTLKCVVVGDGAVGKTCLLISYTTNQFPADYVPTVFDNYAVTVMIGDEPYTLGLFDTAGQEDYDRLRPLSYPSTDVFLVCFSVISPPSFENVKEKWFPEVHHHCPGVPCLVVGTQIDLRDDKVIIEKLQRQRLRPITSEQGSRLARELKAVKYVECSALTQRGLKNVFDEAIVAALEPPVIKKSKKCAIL

B1: GST-tagged Gic2N (amino acids 1–155) (domain or fragment, S. cerevisiae (budding yeast), UniProt Q06648 1-155, looked up)
chain: MTSASITNTGNETMNLPQMRSIWLDEDEEAEKLYGLQAQQFMGSDDEENLGITFINSDKPVLSNKKNIELPPLSPNSHPSCHHRRSNSNSAKSKESSSSSSSANKTNHKKVFLKLNLLKKKLLGAQPDIRGKGISTPFDFQHISHADTRNGFQDE
notes: also called GST-Gic2N; GST-Gic2; source: GST fusion protein, purified and conjugated to glutathione Sepharose
As to B1, the binding result in assay [1] and in assay [2] was “binds” throughout.
